In the Human Domainome abundance scans (Beltran et al. 2025):
± gives the uncertainty stated by the source.

B1: Homeobox protein cut-like 1, residues 548 to 629; numbered along this chain, P39880 (parent)
chain: GEEMDTAEIARQVKEQLIKHNIGQRIFGHYVLGLSQGSVSEILARPKPWNKLTVRGKEPFHKMKQFLSDEQNILALRSIQGR

Variants of: B1
Assay: abundance fitness (aPCA) (normalised: wild type 0, dead -1); higher = more abundant; growth selection in yeast, the domain comes from the species named
Conditions: Homo sapiens

Variant	abundance fitness
GEEMDTAEIARQVKEQLIKHNIGQRIFGHYVLGLSQGSVSEILARPKPWNKLFVRGKEPFHKMKQFLSDEQNILALRSIQGR [T53F]	-0.55 ± 0.069
GEEMDTAEIARQVKEQLIKHNIGQRIFGHYVLGLSQTSVSEILARPKPWNKLTVRGKEPFHKMKQFLSDEQNILALRSIQGR [G37T]	0.063 ± 0.041
GEEMDTAEIARQVKEQLIKHNIGQRIFGHYVLGLSQFSVSEILARPKPWNKLTVRGKEPFHKMKQFLSDEQNILALRSIQGR [G37F]	-0.075 ± 0.088
GEEMDTAEIARQVKEQLIKHNIGQRIFGHYVLGLSQGSVSEILAVPKPWNKLTVRGKEPFHKMKQFLSDEQNILALRSIQGR [R45V]	-0.228 ± 0.032
GEEMDTAEIARQYKEQLIKHNIGQRIFGHYVLGLSQGSVSEILARPKPWNKLTVRGKEPFHKMKQFLSDEQNILALRSIQGR [V13Y]	-0.812 ± 0.086
GEEMDTAEIARQVKEQLIKHNIGQRIFGHYVLGYSQGSVSEILARPKPWNKLTVRGKEPFHKMKQFLSDEQNILALRSIQGR [L34Y]	-0.26 ± 0.063
GEEMDTAEIARQVKEQLIKHNIGQRIFGHYVLGRSQGSVSEILARPKPWNKLTVRGKEPFHKMKQFLSDEQNILALRSIQGR [L34R]	-0.393 ± 0.027
GEEMDTAEIARQVKEQLIKHNIGQRIFGHYVLGTSQGSVSEILARPKPWNKLTVRGKEPFHKMKQFLSDEQNILALRSIQGR [L34T]	-0.213 ± 0.038
GEEMDTAEIARQVKEQLIKHNIGQRIFGHYVLGLSQGSVSEILERPKPWNKLTVRGKEPFHKMKQFLSDEQNILALRSIQGR [A44E]	0.08 ± 0.03
GEEMDTAEIARQVKEQLIKHNIGQRIFGHYVLGLSQGSVSEILYRPKPWNKLTVRGKEPFHKMKQFLSDEQNILALRSIQGR [A44Y]	-0.099 ± 0.056
GEEMDTAEIARQVKEQLIKHNIGQRIFGHYVLGLSQGSVSEILARPKPWNKLTVRGKEPFHKMKQFLSDEQNILALRMIQGR [S78M]	-0.009 ± 0.043
GEEMDTAEIARQVKEQLIKHNIGQRIFGHYVLGLSQGSVSEILARPKPWNKLTVRGKEPFHKMKQFLSDEQNILALRIIQGR [S78I]	-0.066 ± 0.052
GEEMDTAEIARQVKEQLWKHNIGQRIFGHYVLGLSQGSVSEILARPKPWNKLTVRGKEPFHKMKQFLSDEQNILALRSIQGR [I18W]	-0.13 ± 0.03
GEEMDTAEIARQVKEQLIKHNIGQRIFGHYVLGLSQGSVSEILARPKPWNKLTVRGKEPFHKMKQFLSDEQHILALRSIQGR [N72H]	-0.063 ± 0.057
GEEMDTAEIARQVKEQLIKHNIGQRIFGHYVLGLSQGSVSEILARPKPWNKLTVRGKEPFHKMKQFLSDEQNILALRSGQGR [I79G]	-0.203 ± 0.027
GEEMDTAEIARQVKEQLIKHNIGQRIFGHYVLGLSTGSVSEILARPKPWNKLTVRGKEPFHKMKQFLSDEQNILALRSIQGR [Q36T]	-0.034 ± 0.033
GEEMDTAEIARQVKEQLIKHNIGQRIFGHYVLGLSPGSVSEILARPKPWNKLTVRGKEPFHKMKQFLSDEQNILALRSIQGR [Q36P]	0.071 ± 0.035
GEEMDTAEIARQVKEQLIKHNIGQRIFGHYVLGLSQGSVSEILARPKPWNKLTVRGKEPFHKMKQFLSDEQNILACRSIQGR [L76C]	-0.484 ± 0.061
GEEMDTAEIARQVKEQLIKHNIGQRIFGHYVLGLSQGSKSEILARPKPWNKLTVRGKEPFHKMKQFLSDEQNILALRSIQGR [V39K]	-0.898 ± 0.079
GEEMDTAHIARQVKEQLIKHNIGQRIFGHYVLGLSQGSVSEILARPKPWNKLTVRGKEPFHKMKQFLSDEQNILALRSIQGR [E8H]	-0.135 ± 0.05
GREMDTAEIARQVKEQLIKHNIGQRIFGHYVLGLSQGSVSEILARPKPWNKLTVRGKEPFHKMKQFLSDEQNILALRSIQGR [E2R]	-0.188 ± 0.027
GKEMDTAEIARQVKEQLIKHNIGQRIFGHYVLGLSQGSVSEILARPKPWNKLTVRGKEPFHKMKQFLSDEQNILALRSIQGR [E2K]	-0.116 ± 0.039
GEEMDTAEIARQVKGQLIKHNIGQRIFGHYVLGLSQGSVSEILARPKPWNKLTVRGKEPFHKMKQFLSDEQNILALRSIQGR [E15G]	-0.332 ± 0.16

Variant	abundance fitness
GEEMDTAEIARQVKQQLIKHNIGQRIFGHYVLGLSQGSVSEILARPKPWNKLTVRGKEPFHKMKQFLSDEQNILALRSIQGR [E15Q]	-0.077 ± 0.1
GEEMDTAEIARQVKEQLIKHNIGQRIFGHYVLGLSQGSVSEILARPKPWNKLTVRGKEPFHKMKQFLSDEQNILALRSIPGR [Q80P]	-0.098 ± 0.042
GEEMDTAEIARQVKEQLIKHMIGQRIFGHYVLGLSQGSVSEILARPKPWNKLTVRGKEPFHKMKQFLSDEQNILALRSIQGR [N21M]	-0.378 ± 0.045
GEEMDTAEIAVQVKEQLIKHNIGQRIFGHYVLGLSQGSVSEILARPKPWNKLTVRGKEPFHKMKQFLSDEQNILALRSIQGR [R11V]	-0.311 ± 0.058
GEEMDTAEIAQQVKEQLIKHNIGQRIFGHYVLGLSQGSVSEILARPKPWNKLTVRGKEPFHKMKQFLSDEQNILALRSIQGR [R11Q]	-0.24 ± 0.076
GEEMDTAEIARQVKEQLIKHNIGQRIFGHYVLGLSQGSVSEILARWKPWNKLTVRGKEPFHKMKQFLSDEQNILALRSIQGR [P46W]	-0.356 ± 0.036
GEEMDTAEIARQVKEQLIKHNIGQRIFGHEVLGLSQGSVSEILARPKPWNKLTVRGKEPFHKMKQFLSDEQNILALRSIQGR [Y30E]	-0.034 ± 0.029
GEEMDTAEIARQVKEQLIKHNIGQRIFGHVVLGLSQGSVSEILARPKPWNKLTVRGKEPFHKMKQFLSDEQNILALRSIQGR [Y30V]	-0.053 ± 0.028
GEEMDTAEIARQVKEQLIKHNIGQRIFGHYYLGLSQGSVSEILARPKPWNKLTVRGKEPFHKMKQFLSDEQNILALRSIQGR [V31Y]	-0.2 ± 0.058
GEEMDTAEIARQVKEQLIKHNIGQRIFGHYVLGLSQGSVSEIYARPKPWNKLTVRGKEPFHKMKQFLSDEQNILALRSIQGR [L43Y]	-0.699 ± 0.13
GEEMDTAEIARQVKEQLIKHNIGQRIFGHYVRGLSQGSVSEILARPKPWNKLTVRGKEPFHKMKQFLSDEQNILALRSIQGR [L32R]	-0.943 ± 0.043
GEEMDTAEIARQVKEQLIKHNIGQRIFGHYVQGLSQGSVSEILARPKPWNKLTVRGKEPFHKMKQFLSDEQNILALRSIQGR [L32Q]	-0.791 ± 0.063
GEEMDTAEIARQVKEQLIKHNIGQRIFGHYVEGLSQGSVSEILARPKPWNKLTVRGKEPFHKMKQFLSDEQNILALRSIQGR [L32E]	-0.792 ± 0.05
GEEMWTAEIARQVKEQLIKHNIGQRIFGHYVLGLSQGSVSEILARPKPWNKLTVRGKEPFHKMKQFLSDEQNILALRSIQGR [D5W]	-0.782 ± 0.052
GEEMDTAEIARQVKEQLIKKNIGQRIFGHYVLGLSQGSVSEILARPKPWNKLTVRGKEPFHKMKQFLSDEQNILALRSIQGR [H20K]	-0.391 ± 0.041
GEEMDTAEIARQVKEQLIKDNIGQRIFGHYVLGLSQGSVSEILARPKPWNKLTVRGKEPFHKMKQFLSDEQNILALRSIQGR [H20D]	-0.722 ± 0.073
GEEMDTAEIARQVKEQLIKHNIGQRIFGHYVLGLSQGSVSEILARPKPWNKLTVRGKEPFHKMKQFLSDEQNILALRSIQGY [R82Y]	-0.079 ± 0.067
GEEMDTAEIARQVKEQLIKHNIGQRIFGHYVLGLSQGSVSEILARPKPWNKLTVRGKEPFHKMKQFLSDEQNILALRSIQGE [R82E]	0.047 ± 0.05
GEEMDTAEIARQVKEQLIKHNIGQRIFGHYVLGLSQGSVSEILARPKPWNKATVRGKEPFHKMKQFLSDEQNILALRSIQGR [L52A]	-1.04 ± 0.12
GEEMDTAEIARQVKEQLIKHNIGQRIFGHYVLGLSQGSVSEYLARPKPWNKLTVRGKEPFHKMKQFLSDEQNILALRSIQGR [I42Y]	-0.351 ± 0.085
GEEMDTAEIARQVKEQLIMHNIGQRIFGHYVLGLSQGSVSEILARPKPWNKLTVRGKEPFHKMKQFLSDEQNILALRSIQGR [K19M]	-0.293 ± 0.041
GEEMDTAEIARQVKEQLIKHNIGQRIFQHYVLGLSQGSVSEILARPKPWNKLTVRGKEPFHKMKQFLSDEQNILALRSIQGR [G28Q]	-0.457 ± 0.044
GEEMDTAEIARQVKEQLIKHNIGQRIFRHYVLGLSQGSVSEILARPKPWNKLTVRGKEPFHKMKQFLSDEQNILALRSIQGR [G28R]	-0.52 ± 0.03

Variant	abundance fitness
GEEMDTAEIARQVKEQLIKHNIGQRIFGHYVLGLSQGSVSEILARPKPWNKLTVRGKEPFHKMKQFLSDEQNIHALRSIQGR [L74H]	0.007 ± 0.052
GEEMDTAEIARQVKEQLIKHNIGQRIFGHYVLGLSQGSVSEILARPKPWNKLTVRGKEPFHKMKQFLSDEQNIFALRSIQGR [L74F]	-0.028 ± 0.054
GEEMDTAEIARQVKEQLIKHNIGQRIFGHYVLGLSQGSVSEILARPKPWNKLTVRGKEPFHKMFQFLSDEQNILALRSIQGR [K64F]	-0.15 ± 0.097
GEEMDTAEIARQVKEQLIKHNIGQRIFGHYVLGLSQGSVSEILARPKPWNKLTVRGKEPFHKMWQFLSDEQNILALRSIQGR [K64W]	-0.24 ± 0.035
GEEMDTAEIARQVKEQLIKHNIGQRIFGHYVLGLSQGSVSEILARPKPWFKLTVRGKEPFHKMKQFLSDEQNILALRSIQGR [N50F]	-0.265 ± 0.13
GEEMDTAEIARQVKEQLIKHNIGQRIFGHYVLGLSQGSVSEILARPKPWGKLTVRGKEPFHKMKQFLSDEQNILALRSIQGR [N50G]	-0.129 ± 0.084
GEEMDTAEIARQVKEQLIKHNIGQRIFGHYVLGLSQGSVSEILARPKPWQKLTVRGKEPFHKMKQFLSDEQNILALRSIQGR [N50Q]	-0.057 ± 0.13
GEEMDTAEIARQVKEQLIKHNIGQRIFGHYVLGLSQGSVSEILARPKPWNKLTVRGKEPFHKMKMFLSDEQNILALRSIQGR [Q65M]	-0.056 ± 0.034
GEEMDTAEIARQVKEQLIKHNIGQRIFGHYVLGLSQGSVSGILARPKPWNKLTVRGKEPFHKMKQFLSDEQNILALRSIQGR [E41G]	-0.293 ± 0.025
GEEMDTAEIARQVKEQLIKHNIGTRIFGHYVLGLSQGSVSEILARPKPWNKLTVRGKEPFHKMKQFLSDEQNILALRSIQGR [Q24T]	-0.069 ± 0.034
GEEMDTAEIARQVKEQLIKHNIGQRIFGHYVLGLSQGSVSEILARPKPWNKLTVRGKEPFHKMKQFLSDEQNILALSSIQGR [R77S]	0.041 ± 0.03
GEEMDTAEIARQVKEQLIKHNIGQRIFGHYVLGLSQGSVSEILARPKPWNKLTVRGKEPFHKMKQFLSDEQNILALGSIQGR [R77G]	-0.086 ± 0.026
GEEPDTAEIARQVKEQLIKHNIGQRIFGHYVLGLSQGSVSEILARPKPWNKLTVRGKEPFHKMKQFLSDEQNILALRSIQGR [M4P]	-0.318 ± 0.05
GEEMDTAEIARQVKEQLIKHNIGQRIFGHYVLGLSQGSVSEILARPKPWNKLTVRGKEPFGKMKQFLSDEQNILALRSIQGR [H61G]	-0.342 ± 0.024
GEEMDTAEIARQVKEQLIKHNIGQRIFGHYVLGLSQGSVSEILARPKPWNKLTVRRKEPFHKMKQFLSDEQNILALRSIQGR [G56R]	-0.711 ± 0.033
GEEMDTAEIARQVKEQLIKHNIGQRIFGHYVLGLSQGSVSEILARPKPWNKLTVRDKEPFHKMKQFLSDEQNILALRSIQGR [G56D]	0.036 ± 0.043
GEEMDTAEIARQVKEQLIKHNIGQRIFGHYVLQLSQGSVSEILARPKPWNKLTVRGKEPFHKMKQFLSDEQNILALRSIQGR [G33Q]	-0.221 ± 0.037
GEEMDTAEIARQVKEQLIKHNIGQRIFGHYVLGLSQGSVSEILARPKPWNKLTVLGKEPFHKMKQFLSDEQNILALRSIQGR [R55L]	-0.04 ± 0.031
GEEMDTAEIARQVKEQLIKHNIGQRIFGHYVLGLSQGSVSEILARPKPWNKLTVIGKEPFHKMKQFLSDEQNILALRSIQGR [R55I]	-0.148 ± 0.063
GEEMDTAEIARQVKEQLIKHNIGQRIFGHYVLGLSQGSVSEILARPKPWNKLTVSGKEPFHKMKQFLSDEQNILALRSIQGR [R55S]	0.004 ± 0.031
GEEMDTAEIARQVKEQLIKHNIGQRIFGHYVLGLSQGSVSEILARPKPWNKLTVQGKEPFHKMKQFLSDEQNILALRSIQGR [R55Q]	0.067 ± 0.034
